# Reference: article PMC7735993, “Role of Arabidopsis Splicing factor SF1 in Temperature-Responsive Alternative Splicing of FLM pre-mRNA”
# Target: His-AtSF1(1-562) (Arabidopsis thaliana, UniProt Q9LU44 1-562)
# Experiment: EMSA; 23 C; unlabeled self competitor (10-200x) reduces shift; LightShift Chemiluminescent RNA EMSA kit, 23 C, 30 min, 8% native PAGE; buffer, salt and pH not stated
# Settings: protein: recombinant; tags: His; label: 3' biotin
# Chain of His-AtSF1(1-562) (Q9LU44 1-562): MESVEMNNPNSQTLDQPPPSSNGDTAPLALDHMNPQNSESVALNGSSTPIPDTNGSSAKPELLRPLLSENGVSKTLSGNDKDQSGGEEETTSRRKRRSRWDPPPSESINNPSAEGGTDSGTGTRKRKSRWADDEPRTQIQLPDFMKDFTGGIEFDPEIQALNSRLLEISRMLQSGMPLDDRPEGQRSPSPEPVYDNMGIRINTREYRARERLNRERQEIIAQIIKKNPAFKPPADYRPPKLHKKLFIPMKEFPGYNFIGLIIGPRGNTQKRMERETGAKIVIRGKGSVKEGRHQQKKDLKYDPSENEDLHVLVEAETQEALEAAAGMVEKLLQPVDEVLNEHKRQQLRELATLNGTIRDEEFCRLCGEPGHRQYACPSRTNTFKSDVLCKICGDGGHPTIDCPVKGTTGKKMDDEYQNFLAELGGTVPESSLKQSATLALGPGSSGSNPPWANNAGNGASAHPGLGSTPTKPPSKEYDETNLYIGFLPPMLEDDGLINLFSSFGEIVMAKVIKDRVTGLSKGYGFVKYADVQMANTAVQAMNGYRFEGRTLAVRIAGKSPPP
row,Binder,binding result
1,UUCUAAUGCAUUUUUGUUUUAUCU (ssRNA) [FLM BP1],binds
2,UUCUAAUAUUCUUCUGGAUGCGGUUUUUGGUGUUAU (ssRNA) [FLM BP2],binds
